# According to publication PMC10280071, “Allelic variation in the indoleacetic acid-lysine synthase gene of the bacterial pathogen Pseudomonas savastanoi and its role in auxin production” (Frontiers in Plant Science, 2023):
# Legend:
# IaaLPsf-3 = system: T1, IaaLPsf-3; test: coupled continuous spectrophotometric assay of AMP formation (myokinase/pyruvate kinase/lactate dehydrogenase, NADH at […] nm); assay type: biochemical, Pseudomonas savastanoi; settings: 1 mM ATP, 3 mM MgCl2, 100 mM KCl, 50 mM Tris-HCl pH 8.0, 25 °C
# T1 construct: wild-type full-length ORF in pET28a, His6-tagged (C-terminal in methods, N-terminal in results), tag not cut, E. coli BL21
# O=C(O)Cc1c[nH]c2ccccc12 = test: purified protein; settings: 5 mM lysine fixed, IAA 0.05-10 mM, 1 mM ATP, 3 mM MgCl2, 100 mM KCl, 50 mM Tris-HCl pH 8.0, 25 °C
compound,measurement,setting,value
O=C(O)Cc1c[nH]c2ccccc12 [IAA],Km,"IaaLPsf-3; 5 mM lysine fixed, IAA 0.05-10 mM",836 ± 142 µM
NCCCC[C@H](N)C(=O)O [Lys],Km,"IaaLPsf-3; 1 mM IAA fixed, lysine 0.01-10 mM",320 ± 45 µM
IaaLPsn-1 (Pseudomonas savastanoi pv. nerii),Km,O=C(O)Cc1c[nH]c2ccccc12,617 ± 158 µM
same,Vmax,O=C(O)Cc1c[nH]c2ccccc12,0.0106 µmol/min/mg
same,Vmax/Km,O=C(O)Cc1c[nH]c2ccccc12,17.2 µL/min/mg
